Data: patent publication US20230287598A1

Target: Kv1.3 (human (T-cells from human blood donors)) (UniProt P22001)
Experiment: cell-based or functional assay

Kv1.3 (human (T-cells from human blood donors)), sequence (P22001 whole entry): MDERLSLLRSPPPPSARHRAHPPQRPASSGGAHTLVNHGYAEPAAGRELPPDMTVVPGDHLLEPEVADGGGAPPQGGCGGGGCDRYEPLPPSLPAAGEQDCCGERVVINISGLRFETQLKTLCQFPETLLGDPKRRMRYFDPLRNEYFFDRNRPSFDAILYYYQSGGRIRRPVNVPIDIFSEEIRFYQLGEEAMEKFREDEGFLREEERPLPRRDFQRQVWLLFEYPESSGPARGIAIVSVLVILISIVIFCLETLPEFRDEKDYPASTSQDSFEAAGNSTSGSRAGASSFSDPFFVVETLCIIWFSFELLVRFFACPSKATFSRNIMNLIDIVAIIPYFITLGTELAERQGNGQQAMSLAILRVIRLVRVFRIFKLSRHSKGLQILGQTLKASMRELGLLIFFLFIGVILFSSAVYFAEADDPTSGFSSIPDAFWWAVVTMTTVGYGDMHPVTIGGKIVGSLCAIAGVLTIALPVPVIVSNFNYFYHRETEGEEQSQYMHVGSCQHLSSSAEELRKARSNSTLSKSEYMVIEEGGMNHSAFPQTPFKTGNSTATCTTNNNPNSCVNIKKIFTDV

“BLV1H12 GLLV 3xG4S OSK1 (K16,D20) (antibody)” gave a TNF-α ELISA (A450), Donor 1, 6 nM IgG of 0.641 A450, a TNF-α ELISA (A450), Donor 1, 17 nM IgG of 0.698 A450 and a TNF-α ELISA (A450), Donor 1, 50 nM IgG of 0.556 A450. For the same substance, the TNF-α ELISA (A450), Donor 1, 150 nM IgG was 0.253 A450, the TNF-α ELISA (A450), Donor 2, 6 nM IgG was 0.096 A450 and the TNF-α ELISA (A450), Donor 2, 17 nM IgG was 0.094 A450. The TNF-α ELISA (A450), Donor 2, 50 nM IgG was 0.075 A450, the TNF-α ELISA (A450), Donor 2, 150 nM IgG was 0.027 A450 and the TNF-α ELISA (A450), Donor 3, 6 nM IgG was 0.159 A450. The TNF-α ELISA (A450), Donor 3, 17 nM IgG was 0.144 A450, the TNF-α ELISA (A450), Donor 3, 50 nM IgG was 0.102 A450 and the TNF-α ELISA (A450), Donor 3, 150 nM IgG was 0.029 A450.

Substance “BLV1H12 GLLV 3xG4S OSK1 (P12,K16,D20) (antibody)” has a TNF-α ELISA (A450), Donor 1, 6 nM IgG of 0.666 A450, a TNF-α ELISA (A450), Donor 1, 17 nM IgG of 0.651 A450 and a TNF-α ELISA (A450), Donor 1, 50 nM IgG of 0.58 A450. For the same substance, the TNF-α ELISA (A450), Donor 1, 150 nM IgG was 0.171 A450, the TNF-α ELISA (A450), Donor 2, 6 nM IgG was 0.121 A450 and the TNF-α ELISA (A450), Donor 2, 17 nM IgG was 0.108 A450. The TNF-α ELISA (A450), Donor 2, 50 nM IgG was 0.097 A450, the TNF-α ELISA (A450), Donor 2, 150 nM IgG was 0.037 A450 and the TNF-α ELISA (A450), Donor 3, 6 nM IgG was 0.191 A450. For the same substance, the TNF-α ELISA (A450), Donor 3, 17 nM IgG was 0.168 A450, the TNF-α ELISA (A450), Donor 3, 50 nM IgG was 0.122 A450 and the TNF-α ELISA (A450), Donor 3, 150 nM IgG was 0.037 A450.
